T1: FcγRIIa R (human, UniProt P12318 34-217)
T1 construct: extracellular domain; also called FcgRIIa R type; 2aR
T1 sequence (looked up): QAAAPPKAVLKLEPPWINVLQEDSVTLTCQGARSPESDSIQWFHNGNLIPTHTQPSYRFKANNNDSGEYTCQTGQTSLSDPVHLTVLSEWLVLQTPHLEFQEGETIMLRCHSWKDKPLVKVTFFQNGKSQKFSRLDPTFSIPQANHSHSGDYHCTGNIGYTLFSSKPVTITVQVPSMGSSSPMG

T2: FcγRIIb (human, UniProt P31994 43-217)
T2 construct: extracellular domain; also called FcgRIIb; 2b
T2 sequence (looked up): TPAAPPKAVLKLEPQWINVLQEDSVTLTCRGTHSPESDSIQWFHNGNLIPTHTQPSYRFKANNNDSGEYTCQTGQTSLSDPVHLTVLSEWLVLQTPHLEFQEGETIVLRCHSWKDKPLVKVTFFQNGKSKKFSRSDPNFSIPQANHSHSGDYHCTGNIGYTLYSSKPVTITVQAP

B1: GpH7-A5/GpH7-B3 variant E269_01G/GpL16-k0 (antibody, human IgG1, kappa)
heavy 1: not shown
heavy 2: not shown
light: DIVMTQSPLSLPVTPGEPASISCQASESLVHSNRNTYLHWYLQKPGQSPQLLIYKVSNRFSGVPDRFSGSGSGTDFTLKISRVEAEDVGVYYCSQNTHVPPTFGQGTKVEIERTVAAPSVFIFPPSDEQLKSGTASVVCLLNNFYPREAKVQWKVDNALQSGNSQESVTEQDSKDSTYSLSSTLTLSKADYEKHKVYACEVTHQGLSSPVTKSFNRGEC
notes: heterodimerized antibody, mutation in the GpH7-B3 chain only; also called He Ab
B2: GpH7-A5/GpH7-B3 variant E269_12R/GpL16-k0 (antibody, human IgG1, kappa)
heavy 1: not shown
heavy 2: not shown
light: B1 light
notes: as for B1
B3: GpH7-A5/GpH7-B3 variant E269_13S/GpL16-k0 (antibody, human IgG1, kappa)
heavy 1: not shown
heavy 2: not shown
light: B1 light
notes: as for B1
B4: GpH7-A5/GpH7-B3 variant Q295_04F/GpL16-k0 (antibody, human IgG1, kappa)
heavy 1: not shown
heavy 2: not shown
light: B1 light
notes: as for B1
B5: GpH7-A5/GpH7-B3 variant D265_14T/GpL16-k0 (antibody, human IgG1, kappa)
heavy 1: not shown
heavy 2: not shown
light: B1 light
notes: as for B1
B6: GpH7-A5/GpH7-B3 variant E269_11K/GpL16-k0 (antibody, human IgG1, kappa)
heavy 1: not shown
heavy 2: not shown
light: B1 light
notes: as for B1
B7: GpH7-A5/GpH7-B3 variant E269_20W/GpL16-k0 (antibody, human IgG1, kappa)
heavy 1: not shown
heavy 2: not shown
light: B1 light
notes: as for B1
B8: GpH7-A5/GpH7-B3 variant E269_07I/GpL16-k0 (antibody, human IgG1, kappa)
heavy 1: not shown
heavy 2: not shown
light: B1 light
notes: as for B1
B9: GpH7-A5/GpH7-B3 variant E269_14T/GpL16-k0 (antibody, human IgG1, kappa)
heavy 1: not shown
heavy 2: not shown
light: B1 light
notes: as for B1
B10: GpH7-A5/GpH7-B3 variant D265_12R/GpL16-k0 (antibody, human IgG1, kappa)
heavy 1: not shown
heavy 2: not shown
light: B1 light
notes: as for B1
B11: GpH7-A5/GpH7-B3 variant E269_15Y/GpL16-k0 (antibody, human IgG1, kappa)
heavy 1: not shown
heavy 2: not shown
light: B1 light
notes: as for B1
B12: GpH7-A5/GpH7-B3 variant Q295_05P/GpL16-k0 (antibody, human IgG1, kappa)
heavy 1: not shown
heavy 2: not shown
light: B1 light
notes: as for B1
B13: GpH7-A5/GpH7-B3 variant E269_04F/GpL16-k0 (antibody, human IgG1, kappa)
heavy 1: not shown
heavy 2: not shown
light: B1 light
notes: as for B1
B14: GpH7-A5/GpH7-B3 variant E269_16H/GpL16-k0 (antibody, human IgG1, kappa)
heavy 1: not shown
heavy 2: not shown
light: B1 light
notes: as for B1
B15: GpH7-A5/GpH7-B3 variant E269_03V/GpL16-k0 (antibody, human IgG1, kappa)
heavy 1: not shown
heavy 2: not shown
light: B1 light
notes: as for B1
B16: GpH7-A5/GpH7-B3 variant E269_18N/GpL16-k0 (antibody, human IgG1, kappa)
heavy 1: not shown
heavy 2: not shown
light: B1 light
notes: as for B1
B17: GpH7-A5/GpH7-B3 variant P271_15Y/GpL16-k0 (antibody, human IgG1, kappa)
heavy 1: not shown
heavy 2: not shown
light: B1 light
notes: as for B1

Biological target: T1, FcγRIIa R
Assay: SPR; He/Con_2aR divided by He/Con_2b (FcγRIIb as reference)
Procedure: (§1) The heterodimerized antibodies He Abs in which one of the H chains was introduced with an alteration were assayed for their binding activities to each activating FcγR and inhibitory FcγR according to the method described in Example 4. […] The activating FcγRs in FIGS. 26, 27, 28, and 29 are FcγRIa, FcγRIIa (R), FcγRIIa (H), and FcγRIIIa, respectively.
(§2) Analysis of interaction between objective antibody and the FcγR was carried out using Biacore T100 (GE Healthcare). HBS-EP+ (GE Healthcare) was used as the running buffer, and the measurement temperature was set to 25° C. Chips produced by immobilizing the antigen peptide by the amine coupling method to a Series S Sencor Chip CM5 (GE Healthcare), or alternatively, chips produced by allowing preliminarily biotinylated antigen peptides to interact with and immobilize onto a Series S Sensor Chip SA (certified) (GE Healthcare) were used. Antibodies of interest were captured onto an antigen peptide-immobilized chip, and allowed to interact to each FcγR diluted with running buffer. To regenerate and repeatedly use the chip, the antibodies captured on the chip were washed off by reacting 10 mM glycine-HCl, pH 1.5.

IIaR/IIb (He_2aR/2b) [ratio]	Binder
1.27	B1
1.39	B2
1.28	B3
1.29	B4
1.61	B5
2.14	B6
1.3	B7
1.34	B8
1.3	B9
2.15	B10
1.29	B11
1.3	B12
1.29	B13
1.32	B14
1.3	B15
1.32	B16
1.35	B17

Biological target: T1, FcγRIIa R
Assay: SPR (Biacore), antibody captured, FcγR as analyte; relative binding
Procedure: as §1, §2

He/Con_2aR (IIaR binding)	Binder
65.3 % of GpH7-A5/GpH7-B3/GpL16-k0 (=100)	B1
35 % of GpH7-A5/GpH7-B3/GpL16-k0 (=100)	B2
61.2 % of GpH7-A5/GpH7-B3/GpL16-k0 (=100)	B3
83.6 % of GpH7-A5/GpH7-B3/GpL16-k0 (=100)	B4
25.8 % of GpH7-A5/GpH7-B3/GpL16-k0 (=100)	B5
38.1 % of GpH7-A5/GpH7-B3/GpL16-k0 (=100)	B6
55.5 % of GpH7-A5/GpH7-B3/GpL16-k0 (=100)	B7
58.8 % of GpH7-A5/GpH7-B3/GpL16-k0 (=100)	B8
66 % of GpH7-A5/GpH7-B3/GpL16-k0 (=100)	B9
32.2 % of GpH7-A5/GpH7-B3/GpL16-k0 (=100)	B10
57.6 % of GpH7-A5/GpH7-B3/GpL16-k0 (=100)	B11
87.4 % of GpH7-A5/GpH7-B3/GpL16-k0 (=100)	B12
58.2 % of GpH7-A5/GpH7-B3/GpL16-k0 (=100)	B13
50.7 % of GpH7-A5/GpH7-B3/GpL16-k0 (=100)	B14
58.8 % of GpH7-A5/GpH7-B3/GpL16-k0 (=100)	B15
59.2 % of GpH7-A5/GpH7-B3/GpL16-k0 (=100)	B16
70.7 % of GpH7-A5/GpH7-B3/GpL16-k0 (=100)	B17

Biological target: T2, FcγRIIb
Assay: as above
Procedure: as §1, §2

He/Con_2b (IIb binding)	Binder
51.5 % of GpH7-A5/GpH7-B3/GpL16-k0 (=100)	B1
25.2 % of GpH7-A5/GpH7-B3/GpL16-k0 (=100)	B2
47.8 % of GpH7-A5/GpH7-B3/GpL16-k0 (=100)	B3
64.7 % of GpH7-A5/GpH7-B3/GpL16-k0 (=100)	B4
16 % of GpH7-A5/GpH7-B3/GpL16-k0 (=100)	B5
17.8 % of GpH7-A5/GpH7-B3/GpL16-k0 (=100)	B6
42.5 % of GpH7-A5/GpH7-B3/GpL16-k0 (=100)	B7
43.9 % of GpH7-A5/GpH7-B3/GpL16-k0 (=100)	B8
50.6 % of GpH7-A5/GpH7-B3/GpL16-k0 (=100)	B9
15 % of GpH7-A5/GpH7-B3/GpL16-k0 (=100)	B10
44.7 % of GpH7-A5/GpH7-B3/GpL16-k0 (=100)	B11
67.5 % of GpH7-A5/GpH7-B3/GpL16-k0 (=100)	B12
45 % of GpH7-A5/GpH7-B3/GpL16-k0 (=100)	B13
38.5 % of GpH7-A5/GpH7-B3/GpL16-k0 (=100)	B14
45.1 % of GpH7-A5/GpH7-B3/GpL16-k0 (=100)	B15
44.8 % of GpH7-A5/GpH7-B3/GpL16-k0 (=100)	B16
52.3 % of GpH7-A5/GpH7-B3/GpL16-k0 (=100)	B17
